Laboratory results reported in patent publication US20230053214A1 (MACQUARIE UNIVERSITY, published 2023).
Residue numbers refer to the chain shown, from its start. Names may count otherwise. Values belong to the binder of their own block, whether it stands above or below them.

Key:
[1] = biological target: T1, rat PSD95 (FLAG-PSD-95), expressed in transfected cells (rat, UniProt P31016 1-724); assay: co-IP from transfected cells, immunoblot
T1 construct: eGFP-PSD-95 (293T lysate) was used for microscale thermophoresis and PSD-95 internally tagged with mCherry for FLIM/FRET; not shown: FLAG tag

[2] = biological target: T2, human tau (441 amino acids), wild-type (human, UniProt P10636 1-758); assay: co-IP with V5-tagged tau from transfected cells, immunoblot
T2 construct: Expressed in transfected cells for co-IP; GST-tau (E. coli) was used for microscale thermophoresis and GST pulldown, eGFP-tau for FLIM/FRET, recombinant tau for kinase assays; also called hTau40; WT tau; not shown: V5 tag from vector pcDNA3.2/V5-DEST

[3] = biological target: T1, rat PSD95 (FLAG-PSD-95), expressed in …; assay: co-IP with PSD-95 from transfected cells, immunoblot

T1 sequence (P31016 whole entry): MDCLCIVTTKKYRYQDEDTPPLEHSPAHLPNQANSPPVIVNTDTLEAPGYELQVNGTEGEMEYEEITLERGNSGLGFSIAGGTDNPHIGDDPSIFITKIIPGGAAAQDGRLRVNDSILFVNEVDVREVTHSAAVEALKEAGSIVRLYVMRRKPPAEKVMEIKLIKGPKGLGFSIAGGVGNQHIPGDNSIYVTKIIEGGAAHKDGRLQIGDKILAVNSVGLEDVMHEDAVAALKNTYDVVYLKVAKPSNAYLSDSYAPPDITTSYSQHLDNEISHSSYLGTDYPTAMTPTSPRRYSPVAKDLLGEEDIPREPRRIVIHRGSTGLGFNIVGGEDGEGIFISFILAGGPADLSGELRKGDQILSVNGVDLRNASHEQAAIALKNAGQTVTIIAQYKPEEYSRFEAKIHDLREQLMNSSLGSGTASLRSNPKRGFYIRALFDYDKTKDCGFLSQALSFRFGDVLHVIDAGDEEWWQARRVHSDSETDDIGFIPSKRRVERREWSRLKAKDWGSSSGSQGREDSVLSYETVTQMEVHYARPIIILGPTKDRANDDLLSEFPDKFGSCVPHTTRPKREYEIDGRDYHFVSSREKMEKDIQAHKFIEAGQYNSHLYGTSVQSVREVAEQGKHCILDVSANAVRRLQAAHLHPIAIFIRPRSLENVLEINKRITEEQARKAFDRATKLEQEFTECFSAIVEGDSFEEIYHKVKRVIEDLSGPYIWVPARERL
T2 sequence (P10636 other isoform, or with tags, fused parts or gaps): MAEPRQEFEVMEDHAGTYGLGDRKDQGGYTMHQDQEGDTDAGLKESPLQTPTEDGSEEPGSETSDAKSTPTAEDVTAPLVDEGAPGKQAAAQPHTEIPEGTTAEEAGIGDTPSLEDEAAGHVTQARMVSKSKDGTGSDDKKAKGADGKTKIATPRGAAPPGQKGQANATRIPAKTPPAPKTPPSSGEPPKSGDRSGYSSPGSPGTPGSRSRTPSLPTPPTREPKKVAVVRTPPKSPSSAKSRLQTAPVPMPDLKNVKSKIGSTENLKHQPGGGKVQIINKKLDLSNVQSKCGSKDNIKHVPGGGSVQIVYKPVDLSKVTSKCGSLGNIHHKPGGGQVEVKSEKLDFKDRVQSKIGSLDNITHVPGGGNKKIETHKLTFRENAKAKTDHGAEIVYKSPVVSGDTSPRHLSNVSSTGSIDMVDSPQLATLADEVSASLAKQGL

B1: human wild-type p38γ (HA-tagged) (enzyme)
chain: MSSPPPARSGFYRQEVTKTAWEVRAVYRDLQPVGSGAYGAVCSAVDGRTGAKVAIKKLYRPFQSELFAKRAYRELRLLKHMRHENVIGLLDVFTPDETLDDFTDFYLVMPFMGTDLGKLMKHEKLGEDRIQFLVYQMLKGLRYIHAAGIIHRDLKPGNLAVNEDCELKILDFGLARQADSEMTGYVVTRWYRAPEVILNWMRYTQTVDIWSVGCIMAEMITGKTLFKGSDHLDQLKEIMKVTGTPPAEFVQRLQSDEAKNYMKGLPELEKKDFASILTNASPLAVNLLEKMLVLDAEQRVTAGEALAHPYFESLHDTEDEPQVQKYDDSFDDVDRTLDEWKRVTYKEVLSFKPPRQLGARVSKETPL
notes: Recombinant p38γ from bacteria was used in the in vitro kinase assays; also called p38γ WT; wild-type p38γ (WT); not shown: N-terminal HA-tag
binding result [1]: binds | binding result [2]: binds

B3: WT p38γ with deletion of the C-terminal PDZ-binding motif (ΔPm) (enzyme)
chain: MSSPPPARSGFYRQEVTKTAWEVRAVYRDLQPVGSGAYGAVCSAVDGRTGAKVAIKKLYRPFQSELFAKRAYRELRLLKHMRHENVIGLLDVFTPDETLDDFTDFYLVMPFMGTDLGKLMKHEKLGEDRIQFLVYQMLKGLRYIHAAGIIHRDLKPGNLAVNEDCELKILDFGLARQADSEMTGYVVTRWYRAPEVILNWMRYTQTVDIWSVGCIMAEMITGKTLFKGSDHLDQLKEIMKVTGTPPAEFVQRLQSDEAKNYMKGLPELEKKDFASILTNASPLAVNLLEKMLVLDAEQRVTAGEALAHPYFESLHDTEDEPQVQKYDDSFDDVDRTLDEWKRVTYKEVLSFKPPRQLGARVSK
notes: also called p38γ ΔPm; ΔPDZm; not shown: N-terminal HA-tag
binding result [3]: no binding

More lines, now with the values ahead:

binding result [1]: binds | binding result [2]: binds
B2: constitutive active p38γ (D179A), HA-tagged (enzyme)
chain: B1 chain with D179A
notes: also called p38γ^CA; p38γ CA; not shown: N-terminal HA-tag

binding result [3]: no binding
B4: CA p38γ with deletion of the C-terminal PDZ-binding motif (ΔPm) (enzyme)
chain: B3 chain with D179A
notes: also called p38γ^CA ΔPm; ΔPDZm; not shown: N-terminal HA-tag
